Data on five substances can be found in US8551717B2, “Method for determining sumoylation” (Medizinische Hochschule Hannover, priority 2008, dated 2013).

One test has as its target T1, U-CDC37 (Homo sapiens, UniProt P63279+Q16543).
T1 construct: expressed in transfected cells; host or cells: HEK293
Kind of test: Trans-SUMOylation by U-CDC37. The test is classed as cell-based. Also on record: key: (++), strong TransSUMOylation; (+), TransSUMOylation; (+/−) weak TransSUMOylation; (−) no detectable TransSUMOylation. The note with it: protein 2 construct coexpressed with U-CDC37 and EGFP-SUMO1 in HEK293; western blot; Table 2. The text has this: (§1) To identify new SUMOylation substrates and to study the function of SUMOylation the Ubc9/substrate dimerisation-dependent SUMOylation system (USDDS) was developed which consists of fusions of the SUMOylation substrate and of the SUMO-conjugating enzyme Ubc9 to the chemically activatable heterodimerisation domains FKBP and FRB, respectively, as shown in FIG. 2. When the substrate protein fused to FKBP is coexpressed with Ubc9-FRB, treatment of HEK293 cells with the rapamycin-related dimerizer AP21967 induces SUMOylation of the substrate protein fused to FKBP at its specific SUMOylation site. […] Dependent on an EcoRl site in the coding sequence, seven C-terminal amino acids of the human STAT1a in the STAT1-FKBP/FRB fusion proteins are missing. For the SUMOylation analysis HEK293 (human embryonic kidney cells) cells have been used. HEK293 cells were cultured in Dulbecco's modified Eagle's medium with high glucose, complemented with 10% fetal calf serum, 2 mM L-glutamine, 100 U/ml penicillin and […] streptomycin. […]
(§2) As shown above, the SUMOylation of a protein of interest can be induced by the heterodimerisation with a binding protein fused to Ubc9. […] Therefore the protein pairs were coexpressed with EGFP-SUMO1 in HEK293 cells and after 24h the transfectants were lysed and the protein extracts were analyzed in western blots. […]

The target in a further test is T2, CDK4-U (Homo sapiens, UniProt P11802+P63279).
T2 construct: expressed in transfected cells; host or cells: HEK293
T2 sequence (P11802+P63279 fused): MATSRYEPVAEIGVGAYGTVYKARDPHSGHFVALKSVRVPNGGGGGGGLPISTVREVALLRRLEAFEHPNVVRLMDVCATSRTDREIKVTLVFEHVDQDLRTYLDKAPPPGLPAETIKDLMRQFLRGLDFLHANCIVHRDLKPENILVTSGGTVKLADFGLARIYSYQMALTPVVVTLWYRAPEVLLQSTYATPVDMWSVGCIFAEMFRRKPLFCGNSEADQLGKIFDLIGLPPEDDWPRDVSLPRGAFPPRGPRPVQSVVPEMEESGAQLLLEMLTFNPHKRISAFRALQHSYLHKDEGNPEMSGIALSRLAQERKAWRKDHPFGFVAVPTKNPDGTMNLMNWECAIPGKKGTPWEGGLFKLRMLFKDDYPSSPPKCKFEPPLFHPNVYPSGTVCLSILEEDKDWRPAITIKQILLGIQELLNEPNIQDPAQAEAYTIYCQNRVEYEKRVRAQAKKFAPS
Kind of test: Trans-SUMOylation by CDK4-U. The class given is cell-based. Also on record: key: (++), strong TransSUMOylation; (+), TransSUMOylation; (+/−) weak TransSUMOylation; (−) no detectable TransSUMOylation. The following applies: protein 2 construct coexpressed with CDK4-U and EGFP-SUMO1 in HEK293; western blot; Table 1.
From the text: as §1, §2
(Immunoblotting shows a protein as a band on a membrane.)

The target in a further test is T3, CRSP9-U (Homo sapiens, UniProt O43513+P63279).
T3 construct: Ubc9 (fusion partner); expressed in transfected cells; host or cells: HEK293
T3 sequence (O43513+P63279 fused): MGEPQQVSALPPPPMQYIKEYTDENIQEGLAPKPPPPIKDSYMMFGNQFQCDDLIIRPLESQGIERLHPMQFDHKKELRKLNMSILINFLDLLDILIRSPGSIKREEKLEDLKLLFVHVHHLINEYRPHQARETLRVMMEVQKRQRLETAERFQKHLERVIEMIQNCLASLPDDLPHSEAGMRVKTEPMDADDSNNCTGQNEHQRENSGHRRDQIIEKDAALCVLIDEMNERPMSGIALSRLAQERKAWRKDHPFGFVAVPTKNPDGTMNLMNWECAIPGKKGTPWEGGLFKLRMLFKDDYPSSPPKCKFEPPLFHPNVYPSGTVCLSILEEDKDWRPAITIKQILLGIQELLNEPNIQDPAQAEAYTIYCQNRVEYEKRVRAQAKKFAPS
The test is described as follows: Trans-SUMOylation by CRSP9-U. The test is classed as cell-based. More on the design: key: (++), strong TransSUMOylation; (+), TransSUMOylation; (+/−) weak TransSUMOylation; (−) no detectable TransSUMOylation. The following applies: protein 2 construct coexpressed with CRSP9-U and EGFP-SUMO1 in HEK293; western blot; Table 2.
From the text: as §1, §2

For another test, the target named is T4, U-ERK2 (Homo sapiens, UniProt P28482+P63279).
T4 construct: expressed in transfected cells; host or cells: HEK293
Kind of test: Trans-SUMOylation by U-ERK2. The test is classed as cell-based. The following applies: protein 2 construct coexpressed with U-ERK2 and EGFP-SUMO1 in HEK293; western blot; Table 2.

A further test has as its target T5, ERK2-U (Homo sapiens, UniProt P28482+P63279).
T5 construct: expressed in transfected cells; host or cells: HEK293
The test is described as follows: Trans-SUMOylation by ERK2-U. The note with it: protein 2 construct coexpressed with ERK2-U and EGFP-SUMO1 in HEK293; western blot; Table 2. The test is classed as cell-based.

For the next test, the target named is T6, U-MEK2 (Homo sapiens, UniProt P36507+P63279).
T6 construct: expressed in transfected cells; host or cells: HEK293
Kind of test: Trans-SUMOylation by U-MEK2. The class given is cell-based. More on the design: key: (++), strong TransSUMOylation; (+), TransSUMOylation; (+/−) weak TransSUMOylation; (−) no detectable TransSUMOylation. The following applies: protein 2 construct coexpressed with U-MEK2 and EGFP-SUMO1 in HEK293; western blot; Table 1.
From the text: as §1, §2

The next test has as its target T7, U-p38α (Homo sapiens, UniProt P63279+Q16539).
T7 construct: expressed in transfected cells; host or cells: HEK293
Kind of test: Trans-SUMOylation by U-p38α. The following applies: protein 2 construct coexpressed with U-p38α and EGFP-SUMO1 in HEK293; western blot; Table 1. The test is classed as cell-based.

The target of the next test is T8, U-MK5 (Homo sapiens, UniProt P63279+Q8IW41).
T8 construct: expressed in transfected cells; host or cells: HEK293
T8 sequence (P63279+Q8IW41 fused): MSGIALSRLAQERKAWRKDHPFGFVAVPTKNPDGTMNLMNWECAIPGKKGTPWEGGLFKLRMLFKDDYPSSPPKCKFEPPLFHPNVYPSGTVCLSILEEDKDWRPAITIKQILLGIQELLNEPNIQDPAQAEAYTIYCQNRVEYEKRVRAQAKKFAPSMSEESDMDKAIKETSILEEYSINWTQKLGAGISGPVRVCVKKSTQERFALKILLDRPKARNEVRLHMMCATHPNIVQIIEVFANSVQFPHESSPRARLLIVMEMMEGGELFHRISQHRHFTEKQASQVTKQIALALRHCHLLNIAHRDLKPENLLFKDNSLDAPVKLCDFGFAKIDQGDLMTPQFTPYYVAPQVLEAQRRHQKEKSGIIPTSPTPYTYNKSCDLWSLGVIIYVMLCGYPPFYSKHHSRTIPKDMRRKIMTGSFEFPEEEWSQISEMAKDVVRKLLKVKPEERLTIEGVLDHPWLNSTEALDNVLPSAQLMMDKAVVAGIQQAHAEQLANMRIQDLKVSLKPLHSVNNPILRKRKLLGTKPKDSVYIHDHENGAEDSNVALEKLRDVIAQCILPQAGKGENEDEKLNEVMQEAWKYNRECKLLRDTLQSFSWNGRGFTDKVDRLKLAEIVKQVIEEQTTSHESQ
Kind of test: Trans-SUMOylation by U-MK5. The test is classed as cell-based. Also on record: key: (++), strong TransSUMOylation; (+), TransSUMOylation; (+/−) weak TransSUMOylation; (−) no detectable TransSUMOylation. The note with it: protein 2 construct coexpressed with U-MK5 and EGFP-SUMO1 in HEK293; western blot; Table 2. The text has this:
To identify new SUMOylation substrates and to study the function of SUMOylation the Ubc9/substrate dimerisation-dependent SUMOylation system (USDDS) was developed which consists of fusions of the SUMOylation substrate and of the SUMO-conjugating enzyme Ubc9 to the chemically activatable heterodimerisation domains FKBP and FRB, respectively, as shown in FIG. 2. When the substrate protein fused to FKBP is coexpressed with Ubc9-FRB, treatment of HEK293 cells with the rapamycin-related dimerizer AP21967 induces SUMOylation of the substrate protein fused to FKBP at its specific SUMOylation site. […] Dependent on an EcoRl site in the coding sequence, seven C-terminal amino acids of the human STAT1a in the STAT1-FKBP/FRB fusion proteins are missing. For the SUMOylation analysis HEK293 (human embryonic kidney cells) cells have been used. HEK293 cells were cultured in Dulbecco's modified Eagle's medium with high glucose, complemented with 10% fetal calf serum, 2 mM L-glutamine, 100 U/ml penicillin and […] streptomycin. We performed transfection of HEK293 cells using the polyethylenimine transfection reagent. HEK293 cells of a fresh confluent 10 cm plate were transferred on a 12-well plate. After 12-24 h incubation about 70% cell confluence is reached. For each well 45 μl of serum/antibiotic free DMEM medium is mixed with 750 ng of the transfection-purity expression vector DNA (all together 47 μl) and vortexed. Then, 3 μl of vortexed polyethylenimin stock solution (1 mg/ml) is added and the mixture is vortexed. After incubation at room temperature for 10 min 450 μl fresh DMEM with antibiotics is added to the mixture and vortexed. The medium on the cells was then completely removed and immediately, the 500 μl transfection mix was added carefully to each well. The 12 well plate was rocked to ensure a proper distribution of the DNA/transfection reagent complex. After an incubation of the cells for 24 h at a 37° C. in a humidified CO2-incubator (5%) the cells were lysed in 150 μl Laemmli (2×) gel loading buffer (160 mM Tris-HCL, pH 6.8, 4% (w/v) sodium dodecyl sulphate (SDS), 20% (v/v) glycerol, 0.5% β-mercaptoethanol (v/v), 0.008% (w/v) bromophenol blue) and incubated for 10 min at 95° C. For western blot analysis the proteins were separated by SDS-PAGE, blotted on a PVDF membrane and developed with specific primary antibodies (α-Ubc9 (H81, Santa Cruz), α-pY701-STAT1 (Tyr701, Cell Signaling), α-STAT1 (Cell Signaling), α-p53 (1C12, Cell Signaling), α-SUMO1 (Cell Signaling), a horseradish peroxidase (HRP)-conjugated secondary antibody (different companies), the ECL+ (Amersham) or Immobilon™ Western (Millipore) and the LAS-3000 imaging system (Fuji).
As shown above, the SUMOylation of a protein of interest can be induced by the heterodimerisation with a binding protein fused to Ubc9. To find out if Trans-SUMOylation is useful for the characterisation of common protein interactions, protein binding pairs well known from the literature or found in two hybrid screens. […] Therefore the protein pairs were coexpressed with EGFP-SUMO1 in HEK293 cells and after 24h the transfectants were lysed and the protein extracts were analyzed in western blots.
Protein-protein interactions described in the cited references were tested for Trans-SUMOylation. Each specific protein-protein interaction was tested by coexpression of different combinations of protein 1 fused to Ubc9 (U) with protein 2 mostly fused two a tag (HA, FLAG, Myc, GST, ST). (++), strong TransSUMOylation; (+), TransSUMOylation; (+/−) weak TransSUMOylation; (−) no detectable TransSUMOylation; (MEKK1ca) the activated MAP3 kinase MEKK1, that can enhance protein SUMOylation, was coexpressed.
Protein-protein interaction of each pair of protein 1/protein 2 was tested by coexpression of different combinations of a protein 1 fused to Ubc9 (U) with protein 2 mostly fused two a Tag (HA, FLAG, GST, ST). […]

For another test, the target named is T9, MEK2-U (Homo sapiens, UniProt P36507+P63279).
T9 construct: expressed in transfected cells; host or cells: HEK293
Kind of test: Trans-SUMOylation by MEK2-U. The test is classed as cell-based. More on the design: key: (++), strong TransSUMOylation; (+), TransSUMOylation; (+/−) weak TransSUMOylation; (−) no detectable TransSUMOylation. The following applies: protein 2 construct coexpressed with MEK2-U and EGFP-SUMO1 in HEK293; western blot; Table 1.
From the text: as §1, §2

In another test the target is T10, U-TAF10 (Homo sapiens, UniProt P63279+Q12962).
T10 construct: Ubc9 (fusion partner); expressed in transfected cells; host or cells: HEK293
T10 sequence (P63279+Q12962 fused): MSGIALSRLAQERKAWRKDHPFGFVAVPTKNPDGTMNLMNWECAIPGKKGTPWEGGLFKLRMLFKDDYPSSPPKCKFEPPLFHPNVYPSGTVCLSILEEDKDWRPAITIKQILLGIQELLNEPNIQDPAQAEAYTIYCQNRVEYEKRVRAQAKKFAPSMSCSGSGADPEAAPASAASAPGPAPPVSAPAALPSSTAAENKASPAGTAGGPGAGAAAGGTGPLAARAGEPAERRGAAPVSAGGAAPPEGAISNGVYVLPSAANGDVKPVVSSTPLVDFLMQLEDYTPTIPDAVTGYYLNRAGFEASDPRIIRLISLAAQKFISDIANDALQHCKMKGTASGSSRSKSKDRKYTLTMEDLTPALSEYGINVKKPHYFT
The test is described as follows: Trans-SUMOylation by U-TAF10. The class given is cell-based. More on the design: key: (++), strong TransSUMOylation; (+), TransSUMOylation; (+/−) weak TransSUMOylation; (−) no detectable TransSUMOylation. The note with it: protein 2 construct coexpressed with U-TAF10 and EGFP-SUMO1 in HEK293; western blot; Table 2.
From the text: as §1, §2

In a further test the target is T11, MK2-U (Homo sapiens, UniProt P49137+P63279).
T11 construct: expressed in transfected cells; host or cells: HEK293
T11 sequence (P49137+P63279 fused): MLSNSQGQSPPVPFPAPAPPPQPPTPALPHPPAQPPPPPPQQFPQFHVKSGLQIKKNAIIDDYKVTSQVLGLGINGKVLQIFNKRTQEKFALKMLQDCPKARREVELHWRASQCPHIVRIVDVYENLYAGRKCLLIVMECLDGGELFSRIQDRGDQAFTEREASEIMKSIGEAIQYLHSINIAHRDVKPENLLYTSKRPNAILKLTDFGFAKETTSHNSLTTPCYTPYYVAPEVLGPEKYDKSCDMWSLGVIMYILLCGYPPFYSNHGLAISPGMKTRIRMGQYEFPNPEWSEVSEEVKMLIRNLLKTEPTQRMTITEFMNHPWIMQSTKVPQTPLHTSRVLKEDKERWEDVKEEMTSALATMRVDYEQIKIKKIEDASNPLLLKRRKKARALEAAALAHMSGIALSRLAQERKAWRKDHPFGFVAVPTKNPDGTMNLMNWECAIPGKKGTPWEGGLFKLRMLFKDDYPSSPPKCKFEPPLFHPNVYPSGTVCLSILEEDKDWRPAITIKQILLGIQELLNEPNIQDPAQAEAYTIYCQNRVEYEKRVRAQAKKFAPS
Kind of test: Trans-SUMOylation by MK2-U. The class given is cell-based. The following applies: protein 2 construct coexpressed with MK2-U and EGFP-SUMO1 in HEK293; western blot; Table 2.

Another test has as its target T12, STAT1-U (Homo sapiens, UniProt P42224+P63279).
T12 construct: expressed in transfected cells; host or cells: HEK293
Kind of test: Trans-SUMOylation by STAT1-U. The test is classed as cell-based. The note with it: protein 2 construct coexpressed with STAT1-U and EGFP-SUMO1 in HEK293; western blot; Table 1.

For the next test, the system named is STAT1. Kind of test: Interplay of STAT1 Y701 phosphorylation and K703 SUMOylation by USDDS, western blot. The note with it: HEK293, USDDS with AP21967 1 μM and interferon-β, any stimulation scenario. The test is classed as cell-based, human.

T1 sequence (P63279+Q16543 fused): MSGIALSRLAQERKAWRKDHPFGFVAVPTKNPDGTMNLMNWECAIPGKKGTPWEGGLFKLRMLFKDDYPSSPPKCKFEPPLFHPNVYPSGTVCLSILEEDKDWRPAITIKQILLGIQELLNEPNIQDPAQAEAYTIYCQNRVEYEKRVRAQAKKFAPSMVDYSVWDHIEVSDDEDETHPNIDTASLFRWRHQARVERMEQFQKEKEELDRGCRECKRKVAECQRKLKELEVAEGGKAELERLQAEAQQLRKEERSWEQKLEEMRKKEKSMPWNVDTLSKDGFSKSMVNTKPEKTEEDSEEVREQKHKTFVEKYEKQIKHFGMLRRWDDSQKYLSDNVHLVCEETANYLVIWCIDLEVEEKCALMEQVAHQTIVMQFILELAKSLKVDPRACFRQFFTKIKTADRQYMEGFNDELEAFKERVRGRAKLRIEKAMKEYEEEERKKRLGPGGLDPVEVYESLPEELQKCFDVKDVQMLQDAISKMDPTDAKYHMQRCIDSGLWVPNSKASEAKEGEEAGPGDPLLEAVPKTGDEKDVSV
T5 sequence (P28482+P63279 fused): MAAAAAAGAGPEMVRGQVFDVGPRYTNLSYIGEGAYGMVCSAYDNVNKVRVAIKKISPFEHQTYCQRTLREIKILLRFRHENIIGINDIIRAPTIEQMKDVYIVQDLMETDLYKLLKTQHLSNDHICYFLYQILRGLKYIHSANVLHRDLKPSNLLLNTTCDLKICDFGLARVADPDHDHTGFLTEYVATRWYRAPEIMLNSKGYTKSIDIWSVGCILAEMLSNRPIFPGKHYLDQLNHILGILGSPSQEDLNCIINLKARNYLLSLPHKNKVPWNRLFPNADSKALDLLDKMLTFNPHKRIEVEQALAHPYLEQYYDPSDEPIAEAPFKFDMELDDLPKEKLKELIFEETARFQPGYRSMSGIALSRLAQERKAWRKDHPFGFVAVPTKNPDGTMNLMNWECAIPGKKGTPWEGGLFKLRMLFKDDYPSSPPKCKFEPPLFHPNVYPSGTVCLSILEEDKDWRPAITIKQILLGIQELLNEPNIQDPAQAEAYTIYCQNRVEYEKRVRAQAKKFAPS
T7 sequence (P63279+Q16539 fused): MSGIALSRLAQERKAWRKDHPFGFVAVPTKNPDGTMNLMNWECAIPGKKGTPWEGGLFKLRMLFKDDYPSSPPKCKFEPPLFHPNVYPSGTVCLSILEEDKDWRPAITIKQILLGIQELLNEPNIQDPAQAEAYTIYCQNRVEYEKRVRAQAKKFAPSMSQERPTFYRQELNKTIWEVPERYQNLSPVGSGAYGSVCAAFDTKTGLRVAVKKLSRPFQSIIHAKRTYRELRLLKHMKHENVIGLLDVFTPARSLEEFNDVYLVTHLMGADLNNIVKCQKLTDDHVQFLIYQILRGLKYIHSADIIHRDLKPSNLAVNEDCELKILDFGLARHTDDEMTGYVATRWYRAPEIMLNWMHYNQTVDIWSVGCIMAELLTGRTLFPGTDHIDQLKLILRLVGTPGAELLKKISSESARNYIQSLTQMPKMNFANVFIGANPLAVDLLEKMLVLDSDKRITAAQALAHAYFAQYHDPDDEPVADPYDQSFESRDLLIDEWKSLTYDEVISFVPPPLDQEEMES
T12 sequence (P42224+P63279 fused): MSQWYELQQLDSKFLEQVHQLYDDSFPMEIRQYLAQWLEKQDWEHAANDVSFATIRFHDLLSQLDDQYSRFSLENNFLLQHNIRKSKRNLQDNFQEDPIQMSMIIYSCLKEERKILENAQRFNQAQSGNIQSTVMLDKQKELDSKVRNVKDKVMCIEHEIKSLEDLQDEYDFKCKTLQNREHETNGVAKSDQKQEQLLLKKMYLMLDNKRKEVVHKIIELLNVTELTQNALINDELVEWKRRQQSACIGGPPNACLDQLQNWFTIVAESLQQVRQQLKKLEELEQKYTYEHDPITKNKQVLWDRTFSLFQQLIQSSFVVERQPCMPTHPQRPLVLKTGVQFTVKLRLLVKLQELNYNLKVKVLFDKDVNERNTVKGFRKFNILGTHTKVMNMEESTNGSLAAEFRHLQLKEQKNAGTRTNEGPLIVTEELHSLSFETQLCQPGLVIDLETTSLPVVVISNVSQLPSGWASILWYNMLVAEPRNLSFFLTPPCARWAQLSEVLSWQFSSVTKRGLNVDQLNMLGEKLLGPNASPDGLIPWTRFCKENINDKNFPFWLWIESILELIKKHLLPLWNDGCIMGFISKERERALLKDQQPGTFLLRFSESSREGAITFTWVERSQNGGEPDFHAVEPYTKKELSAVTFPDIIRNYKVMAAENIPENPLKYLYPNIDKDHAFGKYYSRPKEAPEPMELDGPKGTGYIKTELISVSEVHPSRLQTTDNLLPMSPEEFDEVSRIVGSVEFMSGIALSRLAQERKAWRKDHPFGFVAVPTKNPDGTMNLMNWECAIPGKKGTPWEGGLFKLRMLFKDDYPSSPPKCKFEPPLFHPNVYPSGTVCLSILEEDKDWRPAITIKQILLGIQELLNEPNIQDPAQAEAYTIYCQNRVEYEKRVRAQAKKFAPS

Consider GST-CDC37: CDC37 fused to GST tag, for which the Trans-SUMOylation result in the test with U-CDC37 and with CDK4-U was “+” each time.
Turning to GST-CRSP9: CRSP9 fused to GST tag, in the test with CRSP9-U, the Trans-SUMOylation entry is “−”.
Turning to GST-ERK2: ERK2 fused to GST tag, the Trans-SUMOylation result with U-ERK2 is on record as “−”; in the test with ERK2-U, “−”; with U-MEK2 it was “+”; with U-p38α, “−”; in the test with U-MK5 it was “−”; with MEK2-U it was “+”.
In the case of GST-TAF10: TAF10 fused to GST tag, the Trans-SUMOylation result with U-TAF10 is given as “(+/−)”; with MK2-U, “−”.
As for “STAT1-FKBP: human STAT1a fused to FKBP heterodimerisation domain”, the Trans-SUMOylation result with MK2-U and with STAT1-U was “−” in each case. The “double modification of STAT1 by SUMOylation and Y701 phosphorylation” value with STAT1 is given as “no double modification”.
